Experimental data taken from the supplement of paper PMC10201428.
± gives the standard deviation of the averaged measurements.

Experiments:
[1] = test system: VchCAST RNA-guided transposition machinery (E. coli BL21(DE3) host, lacZ target); test: relative integration efficiency (T-RL orientation) vs wild-type transposon end (log2 (normalized fold change)); transposon end mutated: right end (5 bp flank + 75 bp right end); higher = more efficient transposition
How it was run: (§1)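 Barcoded pools of 1549 left-end or 1849 right-end transposon variants were cloned into a pUC57 mini-transposon donor. Each pool was co-transformed with a T7-driven effector plasmid (CRISPR array, tniQ-cas8-cas7-cas6, tnsA-tnsB-tnsC) into E. coli BL21(DE3) and plated with 0.1 mM IPTG at 37°C for 18 h. Input plasmids and genomic integration junctions were PCR-amplified and Illumina-sequenced, with two biological output replicates and four wild-type barcodes as reference. Relative integration efficiency is output/input barcode abundance fold change, normalised to wild-type barcodes and log-transformed.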

[2] = test system: VchCAST RNA-guided transposition machinery (E. coli BL21(DE3) host, lacZ target); test: relative integration efficiency (T-LR orientation) vs wild-type transposon end (log2 (normalized fold change)); transposon end mutated: right end (5 bp flank + 75 bp right end); higher = more efficient transposition
How it was run: as §1

| Sequence | relative integration efficiency (log2) [1] | relative integration efficiency (log2) [2] |
| --- | --- | --- |
| ACATTTGTTGATACAACCATAAAAGGATCATTACCCCCATCAATTGATAATTATCACACCCAATTTAACTATAACGCTCTGATCATAGTCAGACCAACATTGCTACGACCCGTATTCGCACCGACAC | -4.48 ± 0.1 | -1.13 ± 0.29 |
| ACATTTGTTGATCAAACCATAAAATGATAATTACACCCATAAATTGATAATTATCACACCCATAAATTGATATTGCCTCTGATCATAGTCAGACCAACATTGCTACGACCCGTATTCGCACCGACAC | -0.137 ± 0.021 | -0.874 ± 0.45 |
| ACATTTGTTGATACAACCATATATTGATATCTCCAACCATAAAGTGATATTTATCACAACCATAAGTTGATATTTTCTCTGATCATAGTCAGACCAACATTGCTACGACCCGTATTCGCACCGACAC | 0.261 ± 0.2 | 0.0054 ± 0.55 |
| ACATTTGTTGATACAAGGATAAAATGATAATTACACCCATAAATTGATAATTATCACACCCATAAATTGATATTGCCTCTGATCATAGTCAGACCAACATTGCTACGACCCGTATTCGCACCGACAC | -0.223 ± 0.044 | -0.87 ± 0.12 |
| ACATTTGTTGATACAACCATCAAATGGTAATTCCACCCATACATTGATAATTATCACACCCAATTTAACTATAACGCTCTGATCATAGTCAGACCAACATTGCTACGACCCGTATTCGCACCGACAC | -4.83 ± 0.15 | -2.28 ± 0.36 |
| CGCGCTGTTGATACAACCATAAAATGATAATTACACCCATAAATTGATAATTATCACACCCATAAATTGATATTGCCTCTGATCATAGTCAGACCAACATTGCTACGACCCGTATTCGCACCGACAC | 0.101 ± 0.1 | 0.747 ± 0.2 |
| ACATTTGTCGATCCAACCATAAAATGATAATTACACCCATAAATGGATCATTATCACACCCAATTTAACTATAACGCTCTGATCATAGTCAGACCAACATTGCTACGACCCGTATTCGCACCGACAC | -2.08 ± 0.19 | 0.888 ± 0.17 |
| ACATTTGTTGATACAACCATAAAAGGATCATTACACCCATAAATTGATAATTATCCCACCCAATTTAACTATAACGCTCTGATCATAGTCAGACCAACATTGCTACGACCCGTATTCGCACCGACAC | -1.69 ± 0.47 | 1.75 ± 0.057 |
| ACATTTGTTGATACAACCATAAAATGATAATTACTCTGATCACCCATAAATTGATAATTATCACACCCATAAATTGATATTGCCATAGTCAGACCAACATTGCTACGACCCGTATTCGCACCGACAC | -4.39 ± 0.071 | 0.359 ± 0.11 |
| ACATTTGTTGATACAACCATAAAATGATAATTACACCCCGAAATTGATAATTATCACACCCATAAATTGATATTGCCTCTGATCATAGTCAGACCAACATTGCTACGACCCGTATTCGCACCGACAC | -3.14 ± 0.19 | -2.51 ± 0.16 |
| ACATTTGTCGATCCAACCATAAAATGATAATTACACCCATAAATTCATAATTATCACACCCAATTTAACTATAACGCTCTGATCATAGTCAGACCAACATTGCTACGACCCGTATTCGCACCGACAC | -2.45 ± 0.51 | 0.641 ± 0.68 |
| ACATTTGTTGATACAACCATAAAATGATAATTACACCCATAAATTGATAATTATCACACCCATAAATTGATATTGCCTCTTCATGTGAGCCCAGGCAGTCCTGGGCATCAATTTTCAGCACCGACAC | -0.116 ± 0.3 | 0.0484 ± 0.15 |
| ACATTTGTTGATACAACCATAAAATGATAATTACTCTGATCATCACCCATAAATTGATAATTATCACACCCATAAATTGATATTGCAGTCAGACCAACATTGCTACGACCCGTATTCGCACCGACAC | -4.28 ± 0.15 | -2.15 ± 0.28 |
| ACATTTGTTGATACAACCATAAAATGATAATTACACCGTTAAATTGATAATTATCACACCCATAAATTGATATTGCCTCTGATCATAGTCAGACCAACATTGCTACGACCCGTATTCGCACCGACAC | -0.609 ± 0.084 | -1.18 ± 0.3 |
| ACATTTGTTGATACAACCATAAAATGATAATTACACCCATAAATTGATAATTAGACACAAACGCCCGGTCGCGGTAAGAGGATCATAGTCAGACCAACATTGCTACGACCCGTATTCGCACCGACAC | -0.538 ± 0.21 | 2.66 ± 0.16 |
| ACATTAGTGGATACAACCATAAAATGATAATTACACCCATAAATTCATAATTATCACACCCAATTTAACTATAACGCTCTGATCATAGTCAGACCAACATTGCTACGACCCGTATTCGCACCGACAC | -7.6 ± 0.5 | -5.23 ± 1.8 |
| ACATTTGTTGATACAACCATAAAATGGTAATTCCACCCATAAATTGATAATTATCACACCCAATTTAACTATAACGCTCTGATCATAGTCAGACCAACATTGCTACGACCCGTATTCGCACCGACAC | -1.45 ± 0.25 | 2.06 ± 0.044 |
| ACATTTGTTGATACAACCATAAAATCATAATTACACCCATCAATTGATAATTATCCCACCCCATTTAACTATAACGCTCTGATCATAGTCAGACCAACATTGCTACGACCCGTATTCGCACCGACAC | -4.292 ± 0.026 | -0.633 ± 0.39 |

| Sequence | relative integration efficiency (log2) [1] | relative integration efficiency (log2) [2] |
| --- | --- | --- |
| ACATTTGTTGATACAACCATAAAATGCGCCTTACACCCATAAATTGATAATTATCACACCCATAAATTGATATTGCCTCTGATCATAGTCAGACCAACATTGCTACGACCCGTATTCGCACCGACAC | -1.4 ± 0.083 | -1.01 ± 0.31 |
| ACATTTGTTGATACAACCATATATTGATATCTCCACCCATAAATTGATAATTATCACACCCATAAATTGATATTGCCTCTGATCATAGTCAGACCAACATTGCTACGACCCGTATTCGCACCGACAC | -0.348 ± 0.03 | -0.187 ± 0.16 |
| ACATTTGTTGATACAACCATAAAACGATAATTACACCCATAAATTCATAATTATCACACCCAATTTAACTATAACGCTCTGATCATAGTCAGACCAACATTGCTACGACCCGTATTCGCACCGACAC | -2.21 ± 0.42 | 1.3 ± 0.2 |
| ACATTTGTCGATACAACCATAAAATGATAATTACCACCCCTAAATTGATAATTATCACACCCATTTAACTATAACGCTCTGATCATAGTCAGACCAACATTGCTACGACCCGTATTCGCACCGACAC | -3.12 ± 0.048 | -0.156 ± 0.26 |
| ACATTTGTTGATACAACCATAAAATGATAATTACAACCATAAAGTGATATTTATCACACCCATAAATTGATATTGCCTCTGATCATAGTCAGACCAACATTGCTACGACCCGTATTCGCACCGACAC | -0.128 ± 0.23 | -0.0327 ± 0.15 |
| ACATTTGTTGATACATCCATAAAATGATAATTACAGCCATAAATTGATAATTATCACAGCCATAAATTGATATTGCCTCTGATCATAGTCAGACCAACATTGCTACGACCCGTATTCGCACCGACAC | -0.851 ± 0.072 | -0.607 ± 0.2 |
| ACATTTGTTGATACAACCATAAAATGATAATTACACCCATAAATTTCGCCGGCGACACAAACGCCCGGTCGCGGTAAGAGGATCATAGTCAGACCAACATTGCTACGACCCGTATTCGCACCGACAC | -2.05 ± 0.15 | 0.788 ± 0.1 |
| ACATTTGTTGATACAACCATAAAATGATAATTACACCCATAAATGGATTATTATCACACCCAATTTAACTATAACGCTCTGATCATAGTCAGACCAACATTGCTACGACCCGTATTCGCACCGACAC | -1.59 ± 0.23 | 0.865 ± 0.44 |
| ACATTTGTTGATACAACCATAAAATGATAAGGCACAAACGCCCGGTCGCCGGCGACACAAACGCCCGGTCGCGGTAAGAGGATCATAGTCAGACCAACATTGCTACGACCCGTATTCGCACCGACAC | -2.28 ± 0.27 | 1.225 ± 0.01 |
| ACATTAGTTGATACAACCATAAAATGATAATTACACCCATAAATGGATAATTATCACACCCAATTTAACTATAACGCTCTGATCATAGTCAGACCAACATTGCTACGACCCGTATTCGCACCGACAC | -6.45 ± 0.32 | -4.68 ± 1.3 |
| ACATTTGTTGATACTTCCATAAAATGATAATTACACCCATAAATTGATAATTATCACACCCATAAATTGATATTGCCTCTGATCATAGTCAGACCAACATTGCTACGACCCGTATTCGCACCGACAC | -0.637 ± 0.052 | -0.525 ± 0.042 |
| ACATTTGTTGATACACCCATAAATTGATATTGCCAACCATAAAATGATAATTATCAGTGGGTATTTAACTATAACGCTCTGATCATAGTCAGACCAACATTGCTACGACCCGTATTCGCACCGACAC | -1.21 ± 0.35 | 2.28 ± 0.096 |
| ACATTTGTTGATACAACCTAAAAATGATAATTACACCCATAAATTGATAATTATCACACCCATAAATTGATATTGCCTCTGATCATAGTCAGACCAACATTGCTACGACCCGTATTCGCACCGACAC | -0.616 ± 0.0067 | -0.819 ± 0.32 |
| ACATTTGTTGATACAACCATAAAATGATAATTACACCCATAAATTGATAATTATCACACCCATAAATTGATATTGCCTCTGATCACAACCATAAAATGATAATTATAGTCAGACCAAGCACCGACAC | -0.0149 ± 0.23 | -0.402 ± 0.11 |
| ACATTTGTTGATACCACCATAAAATGATAATTACCCCCATAAATTGATAATTATCACCCCCATAAATTGATATTGCCTCTGATCATAGTCAGACCAACATTGCTACGACCCGTATTCGCACCGACAC | 0.364 ± 0.15 | 1.35 ± 0.29 |
| ACATTTGTTGATACAACCATAAAATGATAATTACACCCATAAATTGATAAGGCGACACAAACGCCCGGTCGCGGTAAGAGGATCATAGTCAGACCAACATTGCTACGACCCGTATTCGCACCGACAC | -0.882 ± 0.14 | 2.27 ± 0.23 |
| ACATTTGTTCATACAACCATAAAATGATAATTACACCCATAAATGGATAATTATCACCCCCAATTTAACTATAACGCTCTGATCATAGTCAGACCAACATTGCTACGACCCGTATTCGCACCGACAC | -1 ± 0.35 | 0.23 ± 0.071 |
